Assays:
[1] = molecular target: Recombinant D-amino acid transaminase from Blastococcus saxobsidens (BlasaTA), (His)6-tagged (Blastococcus saxobsidens (strain DD2)); test: SEC; gel filtration of the purified enzyme; molecular weight approximately 60 kDa against 29.1 kDa for the subunit; conditions not shown
[2] = molecular target: T1, BlasaTA (transaminase from Blastococcus saxobsidens) (Blastococcus saxobsidens, UniProt H6RQF3); test: half-reaction with PLP form, absorbance at […] nm, kobs fit; type: biochemical; settings: pH 8.0, 50 mM K-phosphate, 30 °C, single half-reaction, read-out: 50 mM K-Phosphate Buffer, pH 8.0 / KD
T1 construct: gene BLASA_4517; codon-optimized gene in modified pET-21d; N-terminal His6 tag with TEV site kept for kinetics, cut for crystals; E. coli Rosetta (DE3) pLysS; homodimer ~60 kDa

purified protein [3] = substrate: C[C@@H](N)C(=O)O; test: purified protein; settings: co-substrate 5 mM α-ketoglutarate, pH 8.0, 50 mM K-phosphate, 40 °C
purified protein [4] = substrate: N[C@H](CCC(=O)O)C(=O)O; test: purified protein; type: biochemical, Blastococcus saxobsidens; settings: co-substrate 15 mM pyruvate, pH 8.0, 50 mM K-phosphate, 40 °C
purified protein [5] = substrate: O=C(O)CCC(=O)C(=O)O; test: purified protein; type: biochemical, Blastococcus saxobsidens; settings: co-substrate 25 mM D-alanine, pH 8.0, 50 mM K-phosphate, 40 °C
purified protein [6] = substrate: CC(C)CC(=O)C(=O)O; test: purified protein; type: biochemical, Blastococcus saxobsidens; settings: co-substrate 25 mM D-alanine, pH 8.0, 50 mM K-phosphate, 40 °C
purified protein [7] = substrate: C[C@@H](N)c1ccccc1; test: purified protein; type: biochemical, Blastococcus saxobsidens; settings: co-substrate 2 mM α-ketoglutarate, pH 9.0, 50 mM CHES, 30 °C
purified protein [8] = substrate: CC(=O)C(=O)O; test: purified protein; type: biochemical, Blastococcus saxobsidens; settings: co-substrate 15 mM D-glutamate, pH 8.0, 50 mM K-phosphate, 40 °C

With “Recombinant D-amino acid transaminase from Blastococcus saxobsidens (BlasaTA), (His)6-tagged (enzyme)” as the molecule, how does the stoichiometry N [1] read?
Its stoichiometry N is 2.

Which Kd [2] does the source give for `C[C@@H](N)c1ccccc1` [(R)-1-Phenylethyl amine] here?
The Kd was 19 ± 2 mM.

Which Kd [2] does the source give for `N[C@H](Cc1ccccc1)C(=O)O` [D-Phenylalanine] here?
The Kd was 32 ± 2 mM.

B1: BlasaTA (transaminase from Blastococcus saxobsidens) (Blastococcus saxobsidens DD2) (protein)
chain: MNEQRSVAVWRDGAAVTVPAHQPVVTAFDLGLGRGDGIFESVAVVAGRTPHLAAHLTRLTRSAALLGLPAPGDQAWMEMVAAVLADWPAALEGVCRLFLTRGLGDGTPPTALALLAPVPADTLRQRAEGISVATLGLGVPADFRAGAPWLLGGAKTLSYAVNMAAQRHAHDLGADDVVFTSLEGRLLEGPTSTVVWAAGGTLHTPPVETGILPGTTQARLFTAAAADGWPTSVTPGTVDDLHAADAVWLLSGVRGAAVVHTVDGVRRGDGDLSRRVRELLAR
notes: codon-optimized gene in modified pET-21d; N-terminal His6 tag with TEV site kept for kinetics, cut for crystals; E. coli Rosetta (DE3) pLysS; homodimer ~60 kDa
B1 was tested. Which Km (purified protein [3]) did it give?
The Km was 2000 ± 300 µM.

What about the kcat (purified protein [3]) of the same molecule?
The kcat was 8.1 s⁻¹.

And the kcat/Km (purified protein [3])?
Its kcat/Km is 4000 M⁻¹ s⁻¹.

What about the Km (purified protein [4]) of the same molecule?
The Km was 400 ± 60 µM.

And the kcat (purified protein [4])?
Its kcat is 7.5 ± 0.3 s⁻¹.

What about the kcat/Km (purified protein [4]) of the same molecule?
The kcat/Km was 18800 ± 3600 M⁻¹ s⁻¹.

What about the Km (purified protein [5]) of the same molecule?
The Km was 530 ± 60 µM.

What about the kcat (purified protein [5]) of the same molecule?
The kcat was 8.1 ± 0.3 s⁻¹.

And the kcat/Km (purified protein [5])?
Its kcat/Km is 15300 ± 2300 M⁻¹ s⁻¹.

And the Km (purified protein [6])?
The Km was 45000 ± 2000 µM.

And the kcat (purified protein [6])?
The kcat was 0.19 ± 0.004 s⁻¹.

And the kcat/Km (purified protein [6])?
The kcat/Km was 4.2 ± 0.3 M⁻¹ s⁻¹.

What about the Km (purified protein [7]) of the same molecule?
The Km was 6600 ± 400 µM.

What about the kcat (purified protein [7]) of the same molecule?
The kcat was 0.053 ± 0.002 s⁻¹.

And the kcat/Km (purified protein [7])?
Its kcat/Km is 8 ± 0.8 M⁻¹ s⁻¹.

What about the Km (purified protein [8]) of the same molecule?
Its Km is 1600 ± 100 µM.

What about the kcat (purified protein [8]) of the same molecule?
The kcat was 7.5 ± 0.3 s⁻¹.

What about the kcat/Km (purified protein [8]) of the same molecule?
The kcat/Km was 4700 ± 500 M⁻¹ s⁻¹.

— paper PMC10671532, “Expanded Substrate Specificity in D-Amino Acid Transaminases: A Case Study of Transaminase from Blastococcus saxobsidens” (International Journal of Molecular Sciences, 2023)
